In patent US6869925 (Amgen, dated 2005):

How the values were obtained:
[1] = biological target: SLPI binding sites on U937 cells (human monocyte cell line; intact cells, PMA-induced cells or plasma membranes) (human); experiment: 125I-SLPI saturation binding, U937 cells plus PMA, *SLPI at 2,560 pM
[2] = biological target: SLPI binding sites on HuT78 cells (human T cell line) (human); experiment: competition with 125I-SLPI, intact HuT78 cells, cold SLPI at 26 nM
[3] = biological target: SLPI binding sites on U937 cells (human monocyte cell line; intact cells, PMA-induced cells or plasma membranes) (human); experiment: competition with 125I-SLPI, intact U937 cells, competitor at 84 nM
[4] = biological target: SLPI binding sites on U937 cells (human monocyte cell line; intact cells, PMA-induced cells or plasma membranes) (human); experiment: 125I-SLPI saturation binding, U937 cells minus PMA, *SLPI at 2560 pM
[5] = biological target: SLPI binding sites on HuT78 cells (human T cell line) (human); experiment: 125I-SLPI saturation binding, intact HuT78 cells, *SLPI at 5120 pM
[6] = biological target: SLPI binding sites on U937 cells (human monocyte cell line; intact cells, PMA-induced cells or plasma membranes) (human); experiment: competition with 125I-SLPI, intact U937 cells, competitor at 0.078 nM
[7] = biological target: SLPI binding sites on U937 cells (human monocyte cell line; intact cells, PMA-induced cells or plasma membranes) (human); experiment: competition with 125I-SLPI, U937 plasma membranes, Kd by Cheng-Prusoff
[8] = biological target: SLPI binding sites on HuT78 cells (human T cell line) (human); experiment: 125I-SLPI saturation binding, intact HuT78 cells, *SLPI at 1280 pM
[9] = biological target: SLPI binding sites on HuT78 cells (human T cell line) (human); experiment: competition with 125I-SLPI, intact HuT78 cells, competitor at 0 nM
[10] = biological target: SLPI binding sites on U937 cells (human monocyte cell line; intact cells, PMA-induced cells or plasma membranes) (human); experiment: 125I-SLPI saturation binding, intact U937 cells, *SLPI at 1280 pM
[11] = biological target: SLPI binding sites on HuT78 cells (human T cell line) (human); experiment: competition with 125I-SLPI, intact HuT78 cells, cold SLPI at 0.25 nM
[12] = biological target: SLPI binding sites on U937 cells (human monocyte cell line; intact cells, PMA-induced cells or plasma membranes) (human); experiment: competition with 125I-SLPI, intact U937 cells, cold SLPI at 860 nM
[13] = biological target: SLPI binding sites on U937 cells (human monocyte cell line; intact cells, PMA-induced cells or plasma membranes) (human); experiment: competition with 125I-SLPI, intact U937 cells, competitor at 2.6 nM
[14] = biological target: SLPI binding sites on U937 cells (human monocyte cell line; intact cells, PMA-induced cells or plasma membranes) (human); experiment: 125I-SLPI saturation binding, U937 cells minus PMA, *SLPI at 640 pM
[15] = biological target: SLPI binding sites on U937 cells (human monocyte cell line; intact cells, PMA-induced cells or plasma membranes) (human); experiment: competition with 125I-SLPI, intact U937 cells, competitor at 8.2 nM
[16] = biological target: SLPI binding sites on U937 cells (human monocyte cell line; intact cells, PMA-induced cells or plasma membranes) (human); experiment: competition with 125I-SLPI, intact U937 cells, competitor at 270 nM
[17] = biological target: SLPI binding sites on HuT78 cells (human T cell line) (human); experiment: competition with 125I-SLPI, intact HuT78 cells, cold SLPI at 0.024 nM
[18] = biological target: SLPI binding sites on U937 cells (human monocyte cell line; intact cells, PMA-induced cells or plasma membranes) (human); experiment: competition with 125I-SLPI, intact U937 cells, cold SLPI at 270 nM
[19] = biological target: SLPI binding sites on U937 cells (human monocyte cell line; intact cells, PMA-induced cells or plasma membranes) (human); experiment: 125I-SLPI saturation binding, U937 cells minus PMA, *SLPI at 10,240 pM
[20] = biological target: SLPI binding sites on U937 cells (human monocyte cell line; intact cells, PMA-induced cells or plasma membranes) (human); experiment: competition with 125I-SLPI, intact U937 cells, competitor at 0.80 nM
[21] = biological target: SLPI binding sites on U937 cells (human monocyte cell line; intact cells, PMA-induced cells or plasma membranes) (human); experiment: 125I-SLPI saturation binding, U937 cells minus PMA, *SLPI at 1280 pM
[22] = biological target: SLPI binding sites on HuT78 cells (human T cell line) (human); experiment: 125I-SLPI saturation binding, intact HuT78 cells, *SLPI at 160 pM
[23] = biological target: SLPI binding sites on U937 cells (human monocyte cell line; intact cells, PMA-induced cells or plasma membranes) (human); experiment: 125I-SLPI saturation binding, U937 cells plus PMA, *SLPI at 20,480 pM
[24] = biological target: SLPI binding sites on U937 cells (human monocyte cell line; intact cells, PMA-induced cells or plasma membranes) (human); experiment: competition with 125I-SLPI, intact U937 cells, competitor at 2750 nM
[25] = biological target: SLPI binding sites on U937 cells (human monocyte cell line; intact cells, PMA-induced cells or plasma membranes) (human); experiment: competition with 125I-SLPI, intact U937 cells, cold SLPI at 8.2 nM

Sequence of serine leukocyte protease inhibitor (SLPI) (P03973 26-132): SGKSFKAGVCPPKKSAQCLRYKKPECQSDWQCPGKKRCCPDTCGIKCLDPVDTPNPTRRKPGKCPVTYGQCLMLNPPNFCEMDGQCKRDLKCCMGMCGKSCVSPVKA

serine leukocyte protease inhibitor (SLPI) (from UniProt P03973 26-132)
bound pM [1]: 215 pM
bound per free [1]: 0.092
sites bound per cell (sites per cell) [1]: 12900
specific cpm [1]: 2300 cpm
% *SLPI BOUND [2]: 37%
% *SLPI BOUND [3]: 7%
bound *SLPI (pM) [4]: 593 pM
bound per free [4]: 0.301
sites bound per cell (sites per cell) [4]: 35700
specific cpm [4]: 6340 cpm
bound pM [5]: 13.5 pM
bound per free [5]: 0.0026
sites bound per cell (sites per cell) [5]: 813
specific cpm [5]: 538 cpm
% *SLPI BOUND [6]: 111%
Kd [7]: 2 nM
bound pM [8]: 7.6 pM
bound per free [8]: 0.0059
sites bound per cell (sites per cell) [8]: 458
specific cpm [8]: 303 cpm
% *SLPI BOUND [9]: 100%
bound *SLPI (pM) [10]: 217 pM
bound per free [10]: 0.204
sites bound per cell (sites per cell) [10]: 13100
specific cpm [10]: 8650 cpm
% *SLPI BOUND [11]: 69%
% *SLPI BOUND [12]: 0%
% *SLPI BOUND [13]: 46%
bound *SLPI (pM) [14]: 207 pM
bound per free [14]: 0.478
sites bound per cell (sites per cell) [14]: 12500
specific cpm [14]: 2210 cpm
% *SLPI BOUND [15]: 22%
% *SLPI BOUND [16]: 5%
% *SLPI BOUND [17]: 88%
% *SLPI BOUND [18]: 0%
bound *SLPI (pM) [19]: 844 pM
bound per free [19]: 0.09
sites bound per cell (sites per cell) [19]: 50800
specific cpm [19]: 9020 cpm
% *SLPI BOUND [20]: 78%
bound *SLPI (pM) [21]: 396 pM
bound per free [21]: 0.448
sites bound per cell (sites per cell) [21]: 23900
specific cpm [21]: 4230 cpm
bound pM [22]: 0.93 pM
bound per free [22]: 0.0058
sites bound per cell (sites per cell) [22]: 56
specific cpm [22]: 37 cpm
bound pM [23]: 255 pM
bound per free [23]: 0.0126
sites bound per cell (sites per cell) [23]: 15400
specific cpm [23]: 2720 cpm
% *SLPI BOUND [24]: 4%
% *SLPI BOUND [25]: 24%
